From paper PMC8891188 (Clinical Pharmacokinetics, 2021)
Like-named read-outs stand apart in the source and are kept apart here.

Experiments:
[1] = simulation of the previous study by Rüppel et al.; cited from earlier work
[2] = cited from earlier work
[3] = 10 U SC; Howey et al.; cited from earlier work
[4] = Serum insulin pharmacokinetics during euglycemic clamp; format: in vivo, human
[5] = test system: persons with type 1 diabetes mellitus; experiment: Euglycemic clamp pharmacodynamics; format: in vivo, human
[6] = across doses, TI inhaled, LIS SC
[7] = mean (SD) of n = 5 PK profiles selected for comparable AUClast, SD

## RHI: regular human insulin, given intravenously or subcutaneously in cited studies
[1]
  ED50, Emax model of predicted GIR AUC vs D: 48 U
[2]; IV, after the start of administration
  Time to maximum concentration (Cmax) of insulin: 5 min
[2]; SC, after administration
  Time to maximum concentration (Cmax) of insulin: 121 min
[3]
  MRT: 3.92 h

## [Lys(B28), Pro(B29)]-human insulin [LIS]
[3]
  MRT: 1.68 h
[4]; 10-U dose of LIS SC, regression equations in the ESM
  Insulin exposure estimated from the linear regression equations: 8152 min µU/mL
[4]; [6]
  Geometric mean dose-normalized insulin exposure (AUClast/D) across doses: 883 min·µU/mL/U
[4]; insulin exposure of 8152 min µU/mL, regression equations
  Estimated MRT at the same insulin exposure: 1.97 h
[4]; [7]
  AUClast of profiles at the high end of the common exposure range: 61,371 (9082) min∙µU/mL
  AUClast of profiles at the low end of the common exposure range: 6538 (65) min∙µU/mL
[5]; [6]
  Geometric mean dose-normalized effect, GIR AUC/D: 66.2 mg/kg/U
[5]; common to TI and LIS, estimate (standard error), SEM
  γ, model of GIRmax vs Cmax (common value): 1.37 (0.19)
[5]; n = 5 profiles per treatment, AUClast about 6537 min∙µU/mL
  Total effect (GIR AUC) at comparable low insulin exposure: 899 mg/kg
[5]; power-law fit, log-transformed variables
  Exponent of dose dependence of tGIRend (tGIRend ~ D^x): ~0.282
